Biological target: DNA processing protein A (DprA) from Helicobacter pylori strain J99 (Helicobacter pylori strain J99) (UniProt B5ZAA1)
Assay: SPR; Biacore 3000; DprA immobilised on a CM5 chip (~500 RU), HP0935 passed over at varying concentrations; 50 mM Tris-Cl pH 7.4, 25 °C, 20 μl/min, 300 s dissociation; Langmuir binding fit

Kd: 3.28 µM
Substance: HP0935, N-acetyltransferase domain-containing protein (GNAT superfamily protein acetyltransferase) from Helicobacter pylori strain 26695 (from UniProt O25589 2-161) (enzyme)
